Usually Kd stands for a measure of binding affinity in units of concentration. The term koff denotes a measure of how fast the partners let go of each other. One may read the kon as the rate constant with which the complex forms. A high value points to fast association. Usually IC50 stands for the midpoint of a concentration-inhibition curve. Read a high IC50 as weaker potency. The term EC50 denotes the midpoint of the concentration-response curve. Read a low EC50 as greater potency.

Residue numbers refer to the chain shown, from its start. Numbers in names are those of the source.

Assay [1] has as its target T1, human beta-amyloid peptide (1-40) (human, UniProt P05067 672-711).
T1 construct: domain: beta-amyloid peptide (1-40); Unlabelled peptide: amine-coupled to a CM5 chip (Method A(ii)) or in solution as analyte (Method B); also called beta-amyloid (1-40)
The assay can be described thus: SPR Biacore 3000, Method B: antibody captured, β-amyloid as analyte. The protocol: (§1) In the second instance the assay was reversed, in that antibodies were first captured to a level of 1000-2500 resonance units on an anti-mouse IgG polyclonal antibody surface (for recombinant mouse 2E7 MAb) or a protein A surface (for humanized H2L1) of a CM5 biosensor chip. Freshly prepared beta-amyloid (1-40) or (1-42) was diluted down in HBS-EP buffer and passed over the captured-antibody surface at concentrations ranging from 4-500 nM (Table 10C and 10D).
(§2) In both methods, regeneration was via a pulse of 100 mM H₃PO₄, and for Table 10A data also followed by a pulse of 50 mM NaOH. […] All runs were double referenced against buffer blank injections. Analysis was carried out using the Biacore™ analysis software BIAevaluation version 4.1.
Background: SPR reads the build-up and loss of mass on a sensor chip optically.

The target in assay [2] is T2, human beta-amyloid peptide (1-42) (human, UniProt P05067 672-713).
T2 construct: domain: beta-amyloid peptide (1-42); Unlabelled peptide: amine-coupled to a CM5 chip (Method A(ii)) or in solution as analyte (Method B); also called beta-amyloid (1-42)
T2 sequence (P05067 672-713 limits assumed): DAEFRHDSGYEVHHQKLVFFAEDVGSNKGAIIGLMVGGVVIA
The assay is described as above. The protocol:
as §1, §2

Assay [3] addresses T3, human Aβ peptide (1-40) biotinylated at the C terminus (human, UniProt P05067 672-711, biotinylated at the C-terminus).
T3 construct: domain: β-amyloid peptide (1-40); Numbers 1-40 count on the β-amyloid peptide, not on APP; also called beta-amyloid 1-40 peptide (biotinylated at the C-terminus); streptavidin-captured beta-amyloid (1-40)
The assay is described as follows: competition ELISA, biotinylated human Aβ (1-40) on streptavidin plate; competitor: mouse 2E7 at constant concentration; Experiment 1. How it is done:
(§3) Two types of competition ELISA were established in order to compare the Aβ binding activity of the three humanised variants compared to the 2E7 chimeric antibody. 1) Immobilised β-amyloid; biotinylated human Aβ peptide (1-40) was immobilized through Streptavidin on ELISA plates Mouse 2E7 antibody was added at a constant concentration along with a dilution series of 2E7-derived humanised variant antibodies. Bound mouse 2E7 MAb was then detected with anti-mouse IgG conjugate.
In general terms: An ELISA detects its analyte on a solid surface through an enzyme-linked reagent.

Assay [4] addresses T3, human Aβ peptide (1-40) biotinylated at …. The assay can be described thus: Aβ binding ELISA, human Aβ (1-40) biotinylated at the C terminus.
For assay [5] the target is unchanged. The assay is described as follows: SPR Biacore 3000, Method A(i): C-terminally biotinylated β-amyloid 1-40 on streptavidin chip, antibody as analyte; Run 1. How it is done: (§4) (i) Briefly, <20 resonance units of beta-amyloid 1-40 peptide (biotinylated at the C-terminus) were captured on a streptavidin biosensor chip (as used for Table 10A). The antibodies were diluted down in HBS-EP buffer and passed over the streptavidin/beta-amyloid surface at concentrations ranging from 0.001 nM-8 nM (for Table 10A). Two separate runs were carried out; each run was carried out on a new streptavidin/beta-amyloid surface. Runs 1 and 2 were essentially the same though there were some differences in the parameters used; Run 1 was carried out using a chip surface on which 16 RU's of beta-amyloid were captured, and antibody concentrations of 0.001 nM-8 nM were used, an association time of 4 minutes and a dissociation time of 20 minutes were used at a flow rate of 50 μl per minute. For Run 2, less than 10 RU's of beta-amyloid were captured and antibody concentrations of 0.003125 nM-8 nM were used. The flow rate and association times were the same as Run 1, however the dissociation time was reduced to 15 minutes. (ii) Beta amyloid (1-40) and (1-42) were amine-coupled on different surfaces of a CM5 biosensor chip to a level of <20 resonance units (as used for Table 10B). The antibodies were diluted down in HBS-EP buffer and passed over the biosensor/beta-amyloid surface at concentrations ranging from 1 nM-64 nM (as used for Table 10B).
as §2

For assay [6] the target is unchanged. The assay is described as follows: SPR Biacore 3000, Method A(i): C-terminally biotinylated β-amyloid 1-40 on streptavidin chip, antibody as analyte; Average(SD) of two runs. How it is done:
as §4, §2

Assay [7] addresses T4, human Aβ peptide (length not stated) (human, UniProt P05067 672-711).
T4 construct: also called β-amyloid in solution
The assay can be described thus: competition ELISA, β-amyloid in solution pre-incubated with the antibody; competitor: immobilised mouse 2E7; Experiment 1. The protocol:
(§5) 2) β-amyloid in solution; a constant concentration of β-amyloid was pre-incubated with a dilution series of humanised 2E7 antibody variants—the mixture including complexed and free amyloid was added for a short time to wells containing immobilised mouse 2E7 MAb. The amount of free β-amyloid that was still available for binding the immobilised parental 2E7 MAb was then detected.

Assay [8] has as its target T3, human Aβ peptide (1-40) biotinylated at …. The assay is described as follows: Aβ binding ELISA, human Aβ (1-40) biotinylated at the C terminus. The source holds these as a separate data set.
Assay [9] has the same target. The assay can be described thus: SPR Biacore 3000, Method A(i): C-terminally biotinylated β-amyloid 1-40 on streptavidin chip, antibody as analyte; Run 2. How it is done:
as §4, §2

Assay [10] shares this target. The assay can be described thus: Aβ binding ELISA, human Aβ (1-40) biotinylated at the C terminus. This is another data set of the same source.
Assay [11] shares this target. The assay can be described thus: competition ELISA, biotinylated human Aβ (1-40) on streptavidin plate; competitor: mouse 2E7 at constant concentration; Experiment 2. The protocol: as §3
In assay [12] the target is T4, human Aβ peptide (length not stated). The assay is described as follows: competition ELISA, β-amyloid in solution pre-incubated with the antibody; competitor: immobilised mouse 2E7; Experiment 2. The protocol: as §5
Assay [13] has as its target T3, human Aβ peptide (1-40) biotinylated at …. The assay can be described thus: Aβ binding ELISA with culture supernatant, Aβ peptide (1-40).

T1 sequence (P05067 672-711 limits assumed): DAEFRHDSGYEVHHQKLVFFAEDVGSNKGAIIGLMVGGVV
T4 sequence (P05067 672-711): as the sequence (P05067 672-711 limits assumed) above
T3 sequence (P05067 672-711 limits assumed): as above

B1: 2F11, an identical sequence clone to mouse 2E7 MAb (antibody, V domains shown)
VH: EVKLVESGGGLVQPGGSLKLSCAVSGFTFSDNGMAWVRQAPRKGPEWIAFISNLAYSIDYADTVTGRFTISRDNAKNTLYLEMSSLRSEDTAMYYCVSGTWFAYWGQGTLVTVSA
VL: DVVLTQTPLSLPVSLGDQASISCRVSQSLLHSNGYTYLHWYLQKPGQSPKLLIYKVSNRFSGVPDRFSGSGSGTDFTLKISRVEAEDLGVYFCSQTRHVPYTFGGGTKLEIK
notes: Mouse antibody
For the molecule B1, in assay [1], binding was put at a Kd of 1.31 nM, the koff was determined as 0.000392 s⁻¹ and the kon is 299000 M⁻¹ s⁻¹. In [2], this molecule gave a Kd of 1.14 nM, a koff of 0.000274 s⁻¹ and a kon of 239000 M⁻¹ s⁻¹.

B2: Chimeric 2E7 antibody (2E7c) (antibody, human IgG1, V domains shown)
VH: B1 VH
VL: B1 VL
notes: Parent murine V regions on human IgG1 (L235A, G237A) and human C kappa; also called 2E7c Chimera; not shown: human IgG1 heavy chain constant region, Fc mutated (L235A, G237A); human C kappa constant region
For the molecule B2, the IC50 was 1.31 µg/mL in assay [3], 0.052 µg/mL in assay [7] and 1.29 µg/mL in assay [11]. In addition, the EC50 in [4] was 0.033 µg/mL; in [8], 0.044 µg/mL; in assay [10] it was 0.043 µg/mL. The results for the Kd in assay [5], in assay [6] and in assay [9] were 0.0481 nM, 0.0458 nM and 0.0435 nM, respectively.

B3: Humanised 2E7 variant H1L1 (antibody, human IgG1, kappa, V domains shown)
VH: EVQLVESGGGLVQPGGSLRLSCAASGFTFSDNGMAWVRQAPGKGLEWVSFISNLAYSIDYADTVTGRFTISRDNAKNSLYLQMNSLRAEDTAVYYCVSGTWFAYWGQGTLVTVSS
VL: DIVMTQSPLSLPVTPGEPASISCRVSQSLLHSNGYTYLHWYLQKPGQSPQLLIYKVSNRFSGVPDRFSGSGSGTDFTLKISRVEAEDVGVYYCSQTRHVPYTFGGGTKVEIKR
notes: Human IgG1 with L235A and G237A, human kappa; also called L1+H1
Regarding B3, the IC50 is 1.62 µg/mL in assay [3], 0.114 µg/mL in assay [7], 0.14 µg/mL in [12] and 1.76 µg/mL in assay [11]. Also, the EC50 in assay [4] stood at 0.035 µg/mL; in assay [8] it was 0.047 µg/mL; in assay [10], 0.051 µg/mL. Also, the results for the Kd in [5], in assay [6] and in [9] were 0.095 nM, 0.0936 nM and 0.0922 nM, respectively.

B4: H2L1 Fab His, H2 heavy chain truncated at position 224 with a C-terminal 6x histidine tag including histidine at position 224 (Fab, V domains shown)
VH: B3 VH with A24V
VL: B3 VL
notes: Recombinant Fab from CHOK1 culture supernatant
As to B4, the half-maximal effective concentration (EC50) in [13] was 0.227 µg/mL.

B5: H2L1 Fab cys, H2 heavy chain truncated at the second cysteine in the hinge region at residue 226 (Fab, V domains shown)
VH: B3 VH with A24V
VL: B3 VL
notes: Recombinant Fab from CHOK1 culture supernatant; also called (b) H2L1 Fab cys
In assay [13], B5 showed an EC50 of 0.226 µg/mL.

B6: H2L1 Fab, H2 heavy chain truncated at residue 224 of the hinge region (Fab, V domains shown)
VH: B3 VH with A24V
VL: B3 VL
notes: Recombinant Fab from CHOK1 culture supernatant; also called (a) H2L1 Fab
B6: the response in assay [13] was half-maximal at 0.239 µg/mL (EC50).

B7: Humanised 2E7 variant H3L1 (antibody, human IgG1, kappa, V domains shown)
VH: B3 VH with V48I
VL: B3 VL
notes: Human IgG1 with L235A and G237A, human kappa; also called L1+H3
Turning to B7, the IC50 was determined as 1.53 µg/mL in [3], 0.069 µg/mL in assay [7], 0.115 µg/mL in assay [12] and 1.39 µg/mL in assay [11]. For the same molecule, the results for the EC50 in [4], in assay [8] and in assay [10] were 0.044 µg/mL, 0.04 µg/mL and 0.055 µg/mL, respectively. For the same molecule, the Kd stood at 0.076 nM in assay [5], 0.0666 nM in assay [6] and 0.0572 nM in [9].

Values taken from US20110064740A1 (GlaxoSmithKline, published 2011).
